In one assay the target is T1, human NGF-Fc protein (human, UniProt P01138 122-241, limits assumed).
T1 construct: not shown: human IgG1 Fc or IgG4 Fc
In words: BLI (Octet Red), human NGF-Fc captured on anti-human Fc sensors, Fab in solution. How it is done: FortéBio BioLayer Interferometry (BLI) technology was chosen as the method for affinity determination by using Octet Red system. NGF is a homodimer protein in its nature form. […] For the purpose of affinity measurement, monovalent Fab fragments of IgG were prepared using Fab preparation kit (Pierce).
After purification, the Fab concentration was determined by OD280 according to the extinction coefficient calculated based on its sequence. […] For each assay, an array of Fab concentrations from about 50 nM to less than 1 nM in kinetic buffer (PALL) were tested by NGF-Fc sensors with the association time of 300 seconds and dissociation time of 1200 seconds. The kinetic data were analyzed using program Data Analysis HT 10.0 according to the manual. All the tests were repeated at least twice in independent assays.

For assay [1], the target named is recombinantly produced human-NGF (human, UniProt P01138 122-241, limits assumed). In words: ELISA, human NGF coated, IgG titrated. The method, then:
NGF binding ELISA assay: In human NGF binding ELISA, Corning 3366 high binding 96 well plates were coated with recombinantly produced human-NGF at 1 μg per ml, 50 μl/well in 1×PBS, and incubated overnight at 4° C. The plates were washed and blocked with 250 μl of 1×PBS/1% BSA at least 30 minutes at room temperature. 50 μl of culture supernatants, after 1:1 diluted by the PBS/BSA diluent, or the purified antibodies diluted serially from a certain concentration with the diluent, were added per well, and incubated at 37° C. for 2 hours. After washing, a secondary antibody, goat anti-human IgG Fc AP (Southern biotech) was applied at a dilution of 1:3000 in PBS/BSA. The plates were incubated for 1 hour at RT and washed. After adding the PNPP substrate, the ODs at 405 nm were read.
NGF binding ELISA assay: NGF binding ELISA assay was performed as described in Example 1.

Another assay deals with T2, human NGF-Fc4 (IgG4-Fc) (human, UniProt P01138 122-241, limits assumed).
T2 construct: not shown: human IgG4 Fc
T2 sequence (P01138 122-241 limits assumed): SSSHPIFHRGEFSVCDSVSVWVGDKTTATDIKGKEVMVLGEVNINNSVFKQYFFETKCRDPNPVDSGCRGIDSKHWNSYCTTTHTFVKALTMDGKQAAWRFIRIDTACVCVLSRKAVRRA
In words: competition ELISA: antibody pre-incubated with human NGF-Fc4, binding to coated TrkA-Fc. How it is done: TrkA inhibition ELISA assay: The TrkA inhibition ELISA assay was designed to identify the anti-NGF antibodies that have the capability of blocking NGF binding to its receptor TrkA. In this assay, human TrkA-Fc (IgG1-Fc, Sinobiological) was coated at 1 μg/ml in the 96-well plates and incubated overnight at 4° C. Antibodies, from cell culture supernatants or after purified, in different dilutions, were pre-incubated with human NGF-Fc4 (IgG4-Fc) at a final concentration of 70 ng/mL for 2 hours in 37° C. A total of 50 μl of the reaction mixtures were then transferred into the TrkA-Fc coated 96-well plates and incubated in room temperature for 2 hours. After washing, a secondary mouse anti-human IgG4-AP (Southern biotech) was added at a dilution of 1:1000 After one hour in room temperature, the plates were washed, and after adding PNPP substrate, ODs at 405 nm were read.
TrkA inhibition ELISA assay: The optimized anti-NGF antibodies Ab4, Ab6, Ab10, Ab16, Ab36, Ab37, Ab44, Ab45, Ab46, Ab47, Ab48, Ab49, Ab52, Ab54, Ab55, Ab56, Ab57, Ab58, Ab59, Ab60, Ab61 and the reference antibody Tanezumab (Pfizer), a humanized antibody from mouse hybridoma were further analyzed for their abilities to block NGF binding to its receptor TrkA. TrkA inhibition assay was performed as described in Example 1.

The next assay addresses human NGF (R&D system) (human, UniProt P01138 122-241). In words: cell-based or functional assay.

Numbering of substitutions follows the chain as printed.

T1 sequence (P01138 122-241 limits assumed): as above
Sequence of recombinantly produced human-NGF (P01138 122-241 limits assumed): as above
Sequence of human NGF (R&D system) (P01138 122-241 limits assumed): as above

Tanezumab Fab: in the assay with human NGF-Fc protein, the Kd stood at 0.169 nM, the koff turned out to be 6.14e-05 s⁻¹ and the on-rate (kon) came out at 364000 M⁻¹ s⁻¹.

B1: Ab16 (antibody, human IgG1, V domains shown)
VH: EVQLVQSGAEVKKPGATVKISCKVSGYSFITYWISWVQQAPGKGLEWMGAIDPSDSDARYSPSFQGRVTITADTSTDTAYMELSSLRSEDTAVYYCAKSDPGYSGYSLLYGFDSWGQGTLVTVSS
VL: DVVMTQSPLSLPVTLGQPASISCRSSQSLVQRNGNTYLSWFQQRPGQPPRLLIYQVSNRYSGVPDRFSGSGSGTDFTLKISRVEAEDVGVYYCGQGAHLPLTFGQGTKVEIK
As for B1, the 50% effective concentration (EC50) in assay [1] was 0.0173 ng/mL. This molecule returned an IC50 with human NGF-Fc4 (IgG4-Fc) of 73.5 ng/mL. The “TF1 Cell Proliferation Inhibition Assay IC50” value in the assay with human NGF (R&D system) was 0.3 nM.

B2: Ab44 Fab (Fab, V domains shown)
VH: EVQLVQSGAEVKKPGESLKISCKGSGYSFITYWISWVRQMPGKGLEWMGAIDPSDSDARYSPSFQGQVTISADKSISTAYLQWSSLKASDTAMYYCAKSDPGYSGYSLLYGFDSWGQGTLVTVSS
VL: B1 VL with F41Y, P48S
In the case of B2, in the assay with human NGF-Fc protein, the Kd is 0.704 nM, the koff was 5.9e-05 s⁻¹ and the kon is 83800 M⁻¹ s⁻¹.

B3: Ab6 Fab (Fab, V domains shown)
VH: B1 VH with S28T
VL: B1 VL
Turning to B3, in the assay with human NGF-Fc protein, binding was put at a Kd of 0.866 nM, the koff worked out at 6.33e-05 s⁻¹ and the kon worked out at 73100 M⁻¹ s⁻¹.

B4: Ab49 (antibody, human IgG1, V domains shown)
VH: B2 VH
VL: B1 VL with V2I, F41Y
On to B4, for which the EC50 in assay [1] was determined as 0.00957 ng/mL. In the assay with human NGF-Fc4 (IgG4-Fc), this molecule showed an IC50 of 87.8 ng/mL.

B5: Ab59 (antibody, human IgG1, V domains shown)
VH: B2 VH with G24I
VL: B1 VL with V2I, F41Y
On to B5, for which the EC50 in assay [1] amounted to 0.0122 ng/mL. Further, in the assay with human NGF-Fc4 (IgG4-Fc), the IC50 was determined as 74.7 ng/mL.

B6: Ab47 (antibody, human IgG1, V domains shown)
VH: B2 VH
VL: B1 VL with V2I, P48S
Consider B6, for which, in assay [1], the EC50 came to 0.00942 ng/mL. The concentration for half-maximal inhibition (IC50) with human NGF-Fc4 (IgG4-Fc) was 66.2 ng/mL.

B7: Ab60 (antibody, human IgG1, V domains shown)
VH: B2 VH with G24I
VL: B1 VL with V2I
Turning to B7, the EC50 in assay [1] was determined as 0.00896 ng/mL. The IC50 with human NGF-Fc4 (IgG4-Fc) is 43.4 ng/mL.

B8: Ab4 Fab (Fab, V domains shown)
VH: B1 VH with S28T
VL: B1 VL with F41Y, P48S
In the assay with human NGF-Fc protein, B8 showed a Kd of 0.0746 nM, a koff of 2.99e-05 s⁻¹ and a kon of 401000 M⁻¹ s⁻¹.

B9: Ab61 Fab (Fab, V domains shown)
VH: B1 VH with S28T
VL: B1 VL with G34A, F41Y, P48S
In the assay with human NGF-Fc protein, B9 yielded a Kd of 0.139 nM, a koff of 5.13e-05 s⁻¹ and a kon of 370000 M⁻¹ s⁻¹.

B10: Ab48 (antibody, human IgG1, V domains shown)
VH: B2 VH
VL: B1 VL with V2I, F41Y, P48S
With B10, the EC50 in assay [1] was found to be 0.0156 ng/mL. Further, in the assay with human NGF-Fc4 (IgG4-Fc), the IC50 was 93.5 ng/mL.

B11: Ab10 Fab (Fab, V domains shown)
VH: B1 VH with S28T
VL: B1 VL with V2I
The molecule B11 showed a koff with human NGF-Fc protein of 7.48e-05 s⁻¹.

B12: Ab42 (antibody, human IgG1, V domains shown)
VH: B2 VH
VL: B1 VL with V2I, S7T, L11S, F41Y, S72A
As to B12, in assay [1], the EC50 is 0.0132 ng/mL. In addition, the IC50 in the assay with human NGF-Fc4 (IgG4-Fc) turned out to be 77.3 ng/mL.

B13: Ab52 (antibody, human IgG1, V domains shown)
VH: B2 VH with G24I
VL: B1 VL with V2I, S7T, L11S, F41Y, S72A
As to B13, the EC50 in assay [1] is 0.0206 ng/mL. Besides, in the assay with human NGF-Fc4 (IgG4-Fc), the IC50 worked out at 70.2 ng/mL.

B14: Ab16 Fab (Fab, V domains shown)
VH: B1 VH
VL: B1 VL
As to B14, in the assay with human NGF-Fc protein, binding was characterised by a dissociation constant (Kd) of 1.37 nM, the koff is 7.11e-05 s⁻¹ and the kon turned out to be 51700 M⁻¹ s⁻¹.

B15: Ab56 (antibody, human IgG1, V domains shown)
VH: B2 VH with G24I
VL: B1 VL
As to B15, in assay [1], the EC50 amounted to 0.0145 ng/mL. The molecule further gave an IC50 with human NGF-Fc4 (IgG4-Fc) of 66.5 ng/mL.

B16: Ab47 Fab (Fab, V domains shown)
VH: B2 VH
VL: B1 VL with V2I, P48S
For the molecule B16, in the assay with human NGF-Fc protein, the Kd was 3.48 nM, the koff came to 0.000142 s⁻¹ and the kon worked out at 40700 M⁻¹ s⁻¹.

B17: Ab37 (antibody, human IgG1, V domains shown)
VH: B1 VH with S28T, T74K
VL: B1 VL with V2I, P48S
B17: the EC50 in assay [1] is 0.0317 ng/mL. In addition, the IC50 in the assay with human NGF-Fc4 (IgG4-Fc) came to 132 ng/mL. For the same molecule, the “TF1 Cell Proliferation Inhibition Assay IC50” value with human NGF (R&D system) is 0.257 nM.

B18: Ab54 Fab (Fab, V domains shown)
VH: B2 VH with G24I
VL: B1 VL with F41Y, P48S
In the assay with human NGF-Fc protein, B18 displayed a Kd of 0.148 nM, a koff of 4.43e-05 s⁻¹ and a kon of 300000 M⁻¹ s⁻¹.

B19: Ab58 (antibody, human IgG1, V domains shown)
VH: B2 VH with G24I
VL: B1 VL with V2I, F41Y, P48S
With B19, the EC50 in assay [1] worked out at 0.0153 ng/mL. For the same molecule, in the assay with human NGF-Fc4 (IgG4-Fc), the IC50 is 80 ng/mL.

B20: Ab46 Fab (Fab, V domains shown)
VH: B2 VH
VL: B1 VL
In the assay with human NGF-Fc protein, B20 displayed a Kd of 2.89 nM, a koff of 0.000107 s⁻¹ and a kon of 37100 M⁻¹ s⁻¹.

B21: Ab45 (antibody, human IgG1, V domains shown)
VH: B2 VH
VL: B1 VL with F41Y
As for B21, the EC50 in assay [1] turned out to be 0.0166 ng/mL. Moreover, the IC50 with human NGF-Fc4 (IgG4-Fc) is 89.8 ng/mL.

B22: Ab57 (antibody, human IgG1, V domains shown)
VH: B2 VH with G24I
VL: B1 VL with V2I, P48S
Consider B22, for which the EC50 in assay [1] is 0.011 ng/mL. For the same molecule, the IC50 with human NGF-Fc4 (IgG4-Fc) is 73.2 ng/mL.

B23: Ab46 (antibody, human IgG1, V domains shown)
VH: B2 VH
VL: B1 VL
In the case of B23, the EC50 in assay [1] turned out to be 0.0169 ng/mL. Moreover, the IC50 with human NGF-Fc4 (IgG4-Fc) was 53.3 ng/mL.

B24: Ab36 Fab (Fab, V domains shown)
VH: B1 VH with S28T, T74K
VL: B1 VL
As for B24, in the assay with human NGF-Fc protein, the Kd came to 0.258 nM, the koff was 7.35e-05 s⁻¹ and the kon worked out at 285000 M⁻¹ s⁻¹.

B25: Ab37 Fab (Fab, V domains shown)
VH: B1 VH with S28T, T74K
VL: B1 VL with V2I, P48S
In the assay with human NGF-Fc protein, B25 yielded a Kd of 3.25 nM, a koff of 5.27e-05 s⁻¹ and a kon of 16200 M⁻¹ s⁻¹.

The values are drawn from US20230220057A1 (STAIDSON BEIJING BIOPHARMACEUTICALS, published 2023).
